Among the data in article PMC4856418, “Inactive mutants of human pyridoxine 5′‐phosphate oxidase: a possible role for a noncatalytic pyridoxal 5′‐phosphate tight binding site” (FEBS Open Bio, 2016) are Kd values, retold here.

Common to all, as to assay: fluorescence polarisation; 1 μM FMI-labeled hPNPO in a 96-well plate, B6 enzymes added at 0 to 20 μM, incubated at 25 °C for 5 h; excitation 495 nm, emission 535 nm; curves fitted to a simple 1:1 model
Settings in all cases: both partners purified
On the technique in general: Polarisation of emitted light reports the rotation of a fluorescent probe.

Test [1] has as its target T1, E. coli serine hydroxymethyltransferase (eSHMT) (E. coli, UniProt P0A825 1-417).
T1 construct: E. coli serine hydroxymethyltransferase; also called E. coli SHMT
T1 sequence (looked up): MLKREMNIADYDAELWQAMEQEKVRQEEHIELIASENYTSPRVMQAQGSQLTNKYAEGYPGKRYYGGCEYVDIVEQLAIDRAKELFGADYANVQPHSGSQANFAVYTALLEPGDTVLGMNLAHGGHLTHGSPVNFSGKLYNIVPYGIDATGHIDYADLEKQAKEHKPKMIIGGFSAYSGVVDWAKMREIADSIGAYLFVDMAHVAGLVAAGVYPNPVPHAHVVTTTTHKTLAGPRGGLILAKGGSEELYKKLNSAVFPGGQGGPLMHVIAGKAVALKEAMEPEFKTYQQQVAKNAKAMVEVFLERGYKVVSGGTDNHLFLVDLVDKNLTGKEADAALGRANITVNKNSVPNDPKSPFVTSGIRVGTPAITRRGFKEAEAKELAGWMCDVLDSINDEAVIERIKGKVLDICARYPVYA

The target of test [2] is T2, rabbit cytosolic serine hydroxymethyltransferase (rcSHMT) (rabbit, UniProt P07511 1-484).
T2 construct: rabbit cytosolic serine hydroxymethyltransferase; In the PLP transfer experiments the apo form (PLP removed with D-alanine) was used; the fluorescence polarization text names rcSHMT without saying apo or holo; also called apo-rcSHMT; apo-SHMT
T2 sequence (looked up): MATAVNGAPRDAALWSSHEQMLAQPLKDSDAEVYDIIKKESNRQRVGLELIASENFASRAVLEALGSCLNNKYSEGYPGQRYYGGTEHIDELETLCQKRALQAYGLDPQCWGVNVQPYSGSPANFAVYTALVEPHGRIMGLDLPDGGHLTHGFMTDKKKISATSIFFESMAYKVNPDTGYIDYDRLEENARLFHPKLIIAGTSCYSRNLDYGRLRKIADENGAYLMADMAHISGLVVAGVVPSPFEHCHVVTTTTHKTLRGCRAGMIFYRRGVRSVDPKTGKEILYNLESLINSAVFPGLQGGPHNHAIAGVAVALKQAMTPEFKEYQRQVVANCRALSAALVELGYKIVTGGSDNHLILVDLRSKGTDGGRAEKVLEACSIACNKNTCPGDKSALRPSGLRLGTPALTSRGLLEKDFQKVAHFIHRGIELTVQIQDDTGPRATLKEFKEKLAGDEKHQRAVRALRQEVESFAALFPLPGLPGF

For test [3], the target named is T3, E. coli L-threonine aldolase (eL-TA) (E. coli, UniProt P75823 1-333).
T3 construct: E. coli L-threonine aldolase
T3 sequence (looked up): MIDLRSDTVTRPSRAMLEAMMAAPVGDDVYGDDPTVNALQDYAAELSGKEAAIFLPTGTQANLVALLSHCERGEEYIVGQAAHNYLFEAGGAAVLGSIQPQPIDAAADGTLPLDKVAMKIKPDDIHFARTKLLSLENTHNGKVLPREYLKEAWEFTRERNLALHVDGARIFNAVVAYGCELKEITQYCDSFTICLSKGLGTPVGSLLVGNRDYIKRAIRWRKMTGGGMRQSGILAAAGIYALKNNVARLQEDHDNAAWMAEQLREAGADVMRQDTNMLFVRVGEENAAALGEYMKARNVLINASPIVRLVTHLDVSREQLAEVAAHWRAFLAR

For test [4], the target named is T4, E. coli aspartate aminotransferase (eAATase) (E. coli, UniProt P00509 1-396).
T4 construct: E. coli aspartate aminotransferase
T4 sequence (looked up): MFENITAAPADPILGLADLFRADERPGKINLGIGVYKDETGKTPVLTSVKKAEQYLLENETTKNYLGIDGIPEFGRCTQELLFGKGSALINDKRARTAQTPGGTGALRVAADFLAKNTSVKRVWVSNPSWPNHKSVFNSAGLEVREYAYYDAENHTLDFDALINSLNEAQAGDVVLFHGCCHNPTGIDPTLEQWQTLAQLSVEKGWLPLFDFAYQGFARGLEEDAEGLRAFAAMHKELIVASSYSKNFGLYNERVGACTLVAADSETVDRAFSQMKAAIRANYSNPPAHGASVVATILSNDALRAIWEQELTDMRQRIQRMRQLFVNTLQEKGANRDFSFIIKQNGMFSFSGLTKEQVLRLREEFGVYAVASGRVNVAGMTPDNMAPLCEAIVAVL

B1: wild-type human pyridoxine 5′-phosphate oxidase (hPNPO) (enzyme)
chain: MTCWLRGVTATFGRPAEWPGYLSHLCGRSAAMDLGPMRKSYRGDREAFEETHLTSLDPVKQFAAWFEEAVQCPDIGEANAMCLATCTRDGKPSARMLLLKGFGKDGFRFFTNFESRKGKELDSNPFASLVFYWEPLNRQVRVEGPVKKLPEEEAECYFHSRPKSSQIGAVVSHQSSVIPDREYLRKKNEELEQLYQDQEVPKPKSWGGYVLYPQVMEFWQGQTNRLHDRIVFRRGLPTGDSPLGPMTHRGEEDWLYERLAP
modifications: labelled with fluorescein 5-maleimide (FMI) in the fluorescence polarization assay; labelled residues not stated
notes: human pyridoxine 5′-phosphate oxidase, wild type; FMI-labelled in the fluorescence polarization assay; also called FMI-labeled hPNPO; FMI-tagged hPNPO
In general, Kd refers to the constant that tells how readily two partners part at equilibrium. Take B1: the Kd came to 1700 nM in test [1], 800 nM in test [2], 12300 nM in test [3] and 300 nM in test [4].
